{
  "source": "patent US20240383958A1",
  "about": "“APELIN RECEPTOR AGONISTS AND USES THEREOF” (VISTERRA, INC., priority 2023, published 2024)",
  "molecules": {"B1": {"name": "ELA-I (Fc fusion)", "chain": "DKTHTSPPSPAPEAAGGPSVFLFPPKPKDTLMISRTPEVTCVVVDVSHEDPEVKFNWYVDGVEVHNAKTKPREEQYNSTYRVVSVLTVLHQDWLNGKEYKCKVSNKALPAPIEKTISKAKGQPREPQVYTLPPSREEMTKNQVNLTCLVKGFYPSDIAVEWESNGQPENNYKTTPPVLDSDGSFFLNSTLTVDKSRWQQGNVFSCSVMHEALHNHYTQKSLSLSPGKGGGGSGGGGSGGGGSKLRKHNSLQRRYMPLHSRVPFP"}, "B2": {"name": "ELA-J (Fc fusion)", "chain": "B1 chain with S249C, R252E, Y254C"}, "B3": {"name": "ELA-A: Fc-linker fusion of wild-type elabela-22 KLRKHNCLQRRCMPLHSRVPFP (protein)", "chain": "MRAWIFFLLCLAGRALADKTHTSPPSPAPEAAGGPSVFLFPPKPKDTLMISRTPEVTCVVVDVSHEDPEVKFNWYVDGVEVHNAKTKPREEQYNSTYRVVSVLTVLHQDWLNGKEYKCKVSNKALPAPIEKTISKAKGQPREPQVYTLPPSREEMTKNQVNLTCLVKGFYPSDIAVEWESNGQPENNYKTTPPVLDSDGSFFLNSTLTVDKSRWQQGNVFSCSVMHEALHNHYTQKSLSLSPGKGGGGSGGGGSGGGGSKLRKHNCLQRRCMPLHSRVPFP"}, "B4": {"name": "ELA-F: Fc-linker fusion of elabela analogue KLRKHNCLKRRCMPLHSRVPFP (Q9K) (protein)", "chain": "B3 chain with Q268K"}, "B5": {"name": "ELA-C: Fc-linker fusion of elabela analogue KLRKHNCLQRRCMILHSRVPFP (P14I) (protein)", "chain": "B3 chain with P273I"}, "B6": {"name": "ELA-B: Fc-linker fusion of elabela analogue KLNKHNCLQRRCMPLHSRVPFP (R3N) (protein)", "chain": "B3 chain with R262N"}, "B7": {"name": "ELA-I: Fc-linker fusion of elabela analogue KLRKHNSLQRRYMPLHSRVPFP (C7S, C12Y) (protein)", "chain": "B3 chain with C266S, C271Y"}, "B8": {"name": "ELA-H: Fc-linker fusion of elabela analogue KLRKHNCLQRRCMPYHSRVPFP (L15Y) (protein)", "chain": "B3 chain with L274Y"}, "B9": {"name": "ELA-L: Fc-linker fusion of elabela analogue KLRKHNCATRRCMPLHSRVPFP (L8A, Q9T) (protein)", "chain": "B3 chain with L267A, Q268T"}, "B10": {"name": "ELA-K: Fc-linker fusion of elabela analogue KLRKHNCLIRRCMPLHSRVPFP (Q9I) (protein)", "chain": "B3 chain with Q268I"}, "B11": {"name": "ELA-G: Fc-linker fusion of elabela analogue KLRKHNCLQRRCMPLHSYVPFP (R18Y) (protein)", "chain": "B3 chain with R277Y"}, "B12": {"name": "APL-B: Fc-linker fusion of apelin analogue QRPRLSHKGPMVF (P12V) (protein)", "chain": "MRAWIFFLLCLAGRALADKTHTSPPSPAPEAAGGPSVFLFPPKPKDTLMISRTPEVTCVVVDVSHEDPEVKFNWYVDGVEVHNAKTKPREEQYNSTYRVVSVLTVLHQDWLNGKEYKCKVSNKALPAPIEKTISKAKGQPREPQVYTLPPSREEMTKNQVNLTCLVKGFYPSDIAVEWESNGQPENNYKTTPPVLDSDGSFFLNSTLTVDKSRWQQGNVFSCSVMHEALHNHYTQKSLSLSPGKGGGGSGGGGSGGGGSQRPRLSHKGPMVF"}, "B13": {"name": "APL-F: Fc-linker fusion of apelin analogue QRPRLSHKGPAPY (M11A, F13Y) (protein)", "chain": "B12 chain with M270A, V271P, F272Y"}, "B14": {"name": "APL-G: Fc-linker fusion of apelin analogue QRPRLSHKGPMAF (P12A) (protein)", "chain": "B12 chain with V271A"}, "B15": {"name": "APL-E: Fc-linker fusion of apelin analogue QRPRLSHKGPHPF (M11H) (protein)", "chain": "B12 chain with M270H, V271P"}},
  "note": "Residue numbers refer to the chain shown, from its start. In names and notes the source's numbering stands.",
  "data": [
    {"target": "T1, apelin receptor (AGTRL1) on CHO-K1 cells (UniProt P35414 1-380, limits assumed)", "T1 sequence (looked up)": "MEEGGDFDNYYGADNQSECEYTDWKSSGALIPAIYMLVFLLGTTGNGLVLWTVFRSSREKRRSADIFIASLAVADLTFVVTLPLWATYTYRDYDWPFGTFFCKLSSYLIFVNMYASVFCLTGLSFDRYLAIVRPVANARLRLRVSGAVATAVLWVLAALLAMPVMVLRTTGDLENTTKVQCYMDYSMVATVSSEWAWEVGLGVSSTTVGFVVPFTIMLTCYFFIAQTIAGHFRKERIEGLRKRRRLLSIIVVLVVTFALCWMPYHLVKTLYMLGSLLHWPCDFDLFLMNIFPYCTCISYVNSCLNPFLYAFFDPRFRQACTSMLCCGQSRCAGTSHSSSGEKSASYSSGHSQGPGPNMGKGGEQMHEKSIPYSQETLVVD", "assay": "cell-based or functional assay", "conditions": "not given", "units": {"beta-Arrestin EC50 (nM) Exp. 1": "nM", "beta-Arrestin EC50 (nM) Exp. 2": "nM", "cAMP EC50 (nM) Exp. 1": "nM", "cAMP EC50 (nM) Exp. 2": "nM"}, "values": [
      {"molecule": "B1", "beta-Arrestin EC50 (nM) Exp. 1": 17.3, "beta-Arrestin EC50 (nM) Exp. 2": 150, "cAMP EC50 (nM) Exp. 1": 22.9, "cAMP EC50 (nM) Exp. 2": 3.19},
      {"molecule": "B2", "beta-Arrestin EC50 (nM) Exp. 1": 73.7, "cAMP EC50 (nM) Exp. 1": 18.6, "cAMP EC50 (nM) Exp. 2": 133}
    ]},
    {"tested_on": "not listed separately", "assay": "Proteolysis during production detected using mass spectroscopy", "format": "physicochemical", "conditions": "proteolytic stability", "text": "Proteolysis during production was detected using mass spectroscopy, which provides insights into the proteolytic stability of the apelin receptor agonists.", "values": [
      {"molecule": "B3", "Proteolysis During Production?": "No"},
      {"molecule": "B4", "Proteolysis During Production?": "No"},
      {"molecule": "B5", "Proteolysis During Production?": "No"},
      {"molecule": "B6", "Proteolysis During Production?": "No"},
      {"molecule": "B7", "Proteolysis During Production?": "Yes"},
      {"molecule": "B8", "Proteolysis During Production?": "No"},
      {"molecule": "B9", "Proteolysis During Production?": "No"},
      {"molecule": "B10", "Proteolysis During Production?": "No"},
      {"molecule": "B11", "Proteolysis During Production?": "No"},
      {"molecule": "B12", "Proteolysis During Production?": "No"},
      {"molecule": "B13", "Proteolysis During Production?": "No"},
      {"molecule": "B14", "Proteolysis During Production?": "No"},
      {"molecule": "B15", "Proteolysis During Production?": "Yes"}
    ]},
    {"tested_on": "APJ-eGFP fusion protein", "assay": "Internalization assay, CHO-M1 cells expressing APJ-eGFP, high-content imaging", "format": "cell-based", "conditions": "lowest concentration at which maximum internalization was observed; 0.914 nM to 2000 nM", "protocol": "In this example, the internalization of exemplary apelin receptor agonist was assessed. CHO-M1 cells expressing an APJ-eGFP fusion protein were stained and plated in a 96-well plate. Apelin receptor agonists were serially diluted and added to the wells at concentrations ranging from 0.914 nM to 2000 nM. The cells were later imaged using an Operetta CLS™ high-content analysis system. APJ-eGFP signal was measured in the membrane and cytoplasmic region, and the ratio of membrane signal to total signal was calculated (E ratio). An internalization score was assigned based on the lowest concentration of the compound at which maximum internalization was observed. The internalization score for each apelin receptor agonist was plotted against the EC50 values for cAMP signaling and beta-arrestin signaling as shown in FIG. 2 and FIG. 3.", "values": [
      {"molecule": "CSCC[C@H](NC(=O)[C@@H]1CSSC[C@H](NC(=O)[C@H](CC(N)=O)NC(=O)[C@H](Cc2c[nH]cn2)NC(=O)[C@H](CCCCN)NC(=O)[C@H](CCCNC(=N)N)NC(=O)[C@H](CC(C)C)NC(=O)[C@@H](N)CCCCN)C(=O)N[C@@H](CC(C)C)C(=O)N[C@@H](CCC(N)=O)C(=O)N[C@@H](CCCNC(=N)N)C(=O)N[C@@H](CCCNC(=N)N)C(=O)N1)C(=O)N1CCC[C@H]1C(=O)N[C@@H](CC(C)C)C(=O)N[C@@H](Cc1c[nH]cn1)C(=O)N[C@@H](CO)C(=O)N[C@@H](CCCNC(=N)N)C(=O)N[C@H](C(=O)N1CCC[C@H]1C(=O)N[C@@H](Cc1ccccc1)C(=O)N1CCC[C@H]1C(=O)O)C(C)C", "note": "[Elabela-22, elabela-22, reference compound]", "Internalization Score": "1 (>1000)"},
      {"molecule": "B3", "Internalization Score": "3 (10-100)"},
      {"molecule": "B4", "Internalization Score": "3 (10-100)"},
      {"molecule": "B5", "Internalization Score": "2 (100-1000)"},
      {"molecule": "B6", "Internalization Score": "3 (10-100)"},
      {"molecule": "B8", "Internalization Score": "2 (100-1000)"},
      {"molecule": "B9", "Internalization Score": "2 (100-1000)"},
      {"molecule": "B10", "Internalization Score": "2 (100-1000)"},
      {"molecule": "B11", "Internalization Score": "1 (>1000)"},
      {"molecule": "B12", "Internalization Score": "2 (100-1000)"},
      {"molecule": "B13", "Internalization Score": "1 (>1000)"},
      {"molecule": "B14", "Internalization Score": "3 (10-100)"},
      {"molecule": "B15", "Internalization Score": "1 (>1000)"}
    ]}
  ]
}
